Test results as given in publication PMC5687031 (Molecular Biology of the Cell, 2017).

What was measured:
crystal structure = target: the molecule itself; test: crystal structure
Spc110^891-944 [1] = target: T1, Spc110^891-944 (S. cerevisiae, UniProt P32380 891-944); test: crystal structure
T1 sequence (looked up): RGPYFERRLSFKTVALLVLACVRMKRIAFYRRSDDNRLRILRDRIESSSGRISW

Spc110^891-944 [2] = target: T1, Spc110^891-944; test: SAXS

stoichiometry N (Spc110^891-944 [1]): 1 calmodulin per Spc110 CBD (2:2)
stoichiometry N (Spc110^891-944 [2]): 1 calmodulin per Spc110^891-944
B1: Kluyveromyces lactis calmodulin (natural protein)
chain: not shown
modifications: disulfide between Cys79 of the two calmodulins in the crystal
stoichiometry N (crystal structure): 2 calmodulin chains
